# Data as given in the RNAGym collection of RNA variant scans (doi:10.1073/pnas.2313332121).
# This sample holds only a part of the variants without activity.
# B1: TPR 5TU (parent)
# chain: GGAUCUUCUCGAUCUAACAAAAAAGACAAAUCUGCCACAAAGCUUGAGAGCAUCUUCGGAUGCAGAGGCGGCAGCCUUCGGUGGCGCGAUAGCGCCAACGUUCUCAACUAUGACACGCAAAACGCGUGCUCCGUUGAAUGGAGUUUAUCAUG
# Variants of: B1
# Assay: polymerase ribozyme fitness, log enrichment relative to wild type (log ratio); higher = more active; in vitro selection for triplet polymerase activity
# How it was run: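 A heterodimeric triplet polymerase ribozyme had each of its subunits mutagenized by PCR into a library, which was transcribed. One round of in vitro selection, done in triplicate, annealed each library with a biotinylated primer, its partner subunit and triplets, then incubated it frozen at −7 °C before gel excision of extended constructs, streptavidin-bead capture and RT-PCR. Fitness is the logarithm of genotype enrichment relative to wild-type enrichment, based on Illumina sequencing of inputs and outputs and inverse-variance-weighted replicate averages. A base-2 logarithm is used, and genotypes were kept only with ≥10 input reads and ≥1 read per output.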
row,Variant,polymerase ribozyme fitness (log ratio)
1,A22C G71C C79U C95G G143A U144C,≤ -4.2
2,A20U C54U C95U C96A,-2.31
3,A21G G25U U56A C85U G94U C123U,-2.71
4,A22C C85G A150G,-2.71
5,A22C G86A U101A G141A A142G,≤ -4.2
6,A20U A47C U55A U56G C72U C87A G88C A115G,≤ -4.2
7,A20U G88C,-3.85
8,A21C C51U G59C G140A A142U,≤ -4.2
9,A21U A26U A29G C35A G86U,-4.04
10,A20U A52G,-2.02
11,A22C A28G G48C G62A A64C C85U,≤ -4.2
12,A20U A21U A41C A47U G58U U104A,-2.77
13,A21G U56A,-0.198
14,A20G U144A,-0.576
15,A21C A22U U53A C85A G124A,-2.42
16,A20U G84U A98G,-4.1
17,A21C C57U C87G G126C A137C,≤ -4.2
18,A20U,-1.18
19,A21U A39G A52C G58A G80A G83U C85A C93A,≤ -4.2
20,A21C A47C G58C,0.582
21,A21C G25C U53A G74A C87G,≤ -4.2
22,A22C C79A G83U A115G G141A,≤ -4.2
23,A21C C27G G83C A113U G140A,≤ -4.2
24,A22C G46A C76U,≤ -4.2

row,Variant,polymerase ribozyme fitness (log ratio)
1,A21U U44G C131U G136C G141U U151A,≤ -4.2
2,A22C G25A C93U C118A,≤ -4.2
3,A22C C54A G94A A98U,-1.82
4,A21G A89G C99U,-1.34
5,A20U A26U A40C U44A C105G C114U C116A,≤ -4.2
6,A22C A37C G59U A89U C93G A119U,≤ -4.2
7,A21G A40C,0.803
8,A21U A29G C32A A64U G68U G84U A121U,≤ -4.2
9,A20U A22G A52U A73G C85U G124C,-3.91
10,A21G A29C G88A G92C C96G U102G A107U,≤ -4.2
11,A22C A26U C36U C54U C85U A98U A106G,≤ -4.2
12,A20U C43U C96U C114U G141C,≤ -4.2
13,A21U A60G G65C,-3.98
14,A20U C85U,-1.3
15,A21C C85G C87U U145G,-3.2
16,A20U A24C A49C G71A C72A C93U C103G U109C,≤ -4.2
17,A21U G58C C76G C87U C105A A119U,≤ -4.2
18,A21G G42A C93U A110C,≤ -4.2
19,A21U A41C G65A C85A,≤ -4.2
20,A20U A23U G42A G67A C93U,≤ -4.2
21,A20U G67A,-3.89
22,A21G A26U C87A C125G U135C U146C,≤ -4.2
23,A21U C35A A106U A119U A138C,≤ -4.2
24,A22C C27U U127C,-3.95

row,Variant,polymerase ribozyme fitness (log ratio)
1,A22C A60G C96G C114A C131G,≤ -4.2
2,A22C A28U G88U,≤ -4.2
3,A21C C27A C43U A89U G92U G126A U145A U151C,≤ -4.2
4,A21G A37G C95U A115G G143C,-3.82
5,A22G C32G U33G G94A A110C C116G,-4.15
6,A21C C36U C57A C95U A97G A98U C125U,-3.21
7,A21U C93U,-0.752
8,A20G U78G C93U A110U U135G A137G,≤ -4.2
9,A21C A52C C57A G88A G92A A97U,≤ -4.2
10,A22C C87U C123G,-0.845
11,A20U C27U G46C C95U,-3.76
12,A20U U61A C75U G81U C99G U148G,≤ -4.2
13,A20U U78A C95U,≤ -4.2
14,A22C A30G A60G G68A C85A A91C G126A,≤ -4.2
15,A22C G50C C57G G80U C87A A150U,≤ -4.2
16,A22C A52C,-1.04
17,A20G C43U U55A C85U C96G A98U A107G,≤ -4.2
18,A22C A40C G94A A119G,0.789
19,A22C G34A A64G U144G U151A,-4.04
20,A20U A23C C72U G88C A91G C99U G140U,≤ -4.2
21,A20U A73G C85A C93A G141C,≤ -4.2
22,A21G G59C C85U U102C C116G U134A,-4.09
23,A21U G50C C57A A97G,-3.79
24,A21C A89U U104A,-0.361

row,Variant,polymerase ribozyme fitness (log ratio)
1,A20U A24U G83C C93G G143A,≤ -4.2
2,A20G C93U C99A G124U,-2.78
3,A21U C57A C93G A142C,-3.67
4,A20U C35U U144C,-2.73
5,A20G C54A G68A C87U,≤ -4.2
6,A21U U55A C63U C85U,0.519
7,A22G A23C G83A,≤ -4.2
8,A21G C27U C38A C93G U101A U146C,≤ -4.2
9,A21C G84U,-1.28
10,A21C G34U U55A C132G U135A,≤ -4.2
11,A22G A40G G42C C79A G94C,≤ -4.2
12,A20U A23U A37U C51U C69A C105U,≤ -4.2
13,A20G G48A C69A A98U A142G,-3.3
14,A22G C85A,-1.12
15,A21U A26U A40U,-3.62
16,A22G C38G C96U A110U U111A,≤ -4.2
17,A21C A47C A60G C93A,-1.98
18,A21G U56G G80U G88A C105G A120U C149U,≤ -4.2
19,A20U A47G A89U C105U,-2.65
20,A21G G124C,-0.489
21,A20U A26U G83C,≤ -4.2
22,A21C A24G A52G G67A C85A G141C,≤ -4.2
23,A21U U55A U56A G71U,-1.72
24,A22C C57U,-0.765

row,Variant,polymerase ribozyme fitness (log ratio)
1,A22C C95U A138U,≤ -4.2
2,A22G A89C,-0.303
3,A22C G86A,-1.57
4,A21U C35U G58A G68A A115G C118U G141A,≤ -4.2
5,A22G G59C C75G C108G A138G,≤ -4.2
6,A21G A49U C57G A150G,≤ -4.2
7,A21U A49G G84U U145G,-2.57
8,A22G A29U G88A G117U G140A,≤ -4.2
9,A20U C38U C85A G86U,≤ -4.2
10,A20U A41U,-2.17
11,A20U A41C,-2.09
12,A21G A22U U53A C85G C132G,≤ -4.2
13,A20G G86U A91C U146G,≤ -4.2
14,A20U G84U A120U,-2.73
15,A22C G81A,-0.137
16,A21C C87U A89C A98G G112U,≤ -4.2
17,A21U A91U,≤ -4.2
18,A22G C85A G143C,-2.92
19,A20G G140U,-3.41
20,A22G A73U C87U,-3.05
21,A21U G34U C54G U61G C108G G140A U145C,-4.13
22,A20G C85A U104C C105G,≤ -4.2
23,A22C C69U C93U,-1.59
24,A21G C36U A52C A107U U127C,≤ -4.2

row,Variant,polymerase ribozyme fitness (log ratio)
1,A22C C51U U55G G67A G84C A115U G140C,≤ -4.2
2,A20U A26C C32U A64C C75G U78G C123U U134C U145C,≤ -4.2
3,A20G U53G G74A C93A,≤ -4.2
4,A21C A24C A52C C79A C93U A150U G152C,≤ -4.2
5,A22G G25U C38A A52G C96U,-2.43
6,A20U A24U G58C C96G A119G,≤ -4.2
7,A22C C51U U56A G92U G100C U101G C103G G143U G152A,≤ -4.2
8,A20U C54G G70C C79G G92U A107U,≤ -4.2
9,A20U G133C,-3.79
10,A20U A41U G59A G67A G86C,≤ -4.2
11,A22G G59C G62C C63U C87G A89U A120C G143C,-3.94
12,A21C U56G G62C U101G,-3.54
13,A21C U53A C54G C76G C103G G133U,≤ -4.2
14,A21G U31A A41G C51U C87A C118A U139A C149G,≤ -4.2
15,A22C C76A C85A C93U C132A A142U,≤ -4.2
16,A22C A40C C63G,0.514
17,A21G C32U G84U A115U U144C,≤ -4.2
18,A22C G65A U104G A107C U127G,≤ -4.2
19,A21G A22G A47C C51A G74C C75U U102G C132G G143C,≤ -4.2
20,A20U C79U,-3.19
21,A22G G34C C95U A138G,≤ -4.2
22,A21G G46U U55A U151G,≤ -4.2
23,A22C A89G C95A C103A G124U,-4
24,A22C G70C,-4

row,Variant,polymerase ribozyme fitness (log ratio)
1,A21U A23U,≤ -4.2
2,A20G G94A C105G,-2.04
3,A20U G50U C76A G92C A110G C118G A137U,≤ -4.2
4,A21U C38U C63G G84U,-0.36
5,A20U A30C G70A,≤ -4.2
6,A21U U101C,0.366
7,A22G C123A A147U,1.6
8,A21C G25C C36G C93G A115U U134A U146A,≤ -4.2
9,A21G A138G,-3.38
10,A20G C87U,-1.06
11,A21G C75U,0.894
12,A20U A29G G42A C57A A91G G94C,≤ -4.2
13,A21G G25C G34A G71U G100C A107U U109C A121U A150U,≤ -4.2
14,A21U C57G C93A,-2.34
15,A21C A23C G80A U82G G86U A137G,≤ -4.2
16,A21C C27U G59C C69A,-3.75
17,A20G C36U C85G,-4.17
18,A21G A23G G58C G59A C85G C103A C108U,≤ -4.2
19,A20U A30U A39G C75A,≤ -4.2
20,A22C G58A C72A C87G C125G G126U,≤ -4.2
21,A20U A73G U104G A115G,≤ -4.2
22,A21G A52G U53A C54U C87U C95A G136A G140U,≤ -4.2
23,A21U A52G G92A G124C,-3.99
